The data set in a line: label from the status in PepcDB records.

On to “MSILMLFGLATLRSATYGENEQLFTRQIVWDIAGFSLMFLVLFIKDRTIRNFSIILYVFSVVLLAALLVKGTPIGGSKRWFRVMGFSFQPSDFAKLSLIVLLPYLLEKRWFWRSFFLTVVPAVLIFLEPDLGTTLSVGLIWLFAVLASNVNKKPLVILLILVLVFLPVFFFFGLKDYQRARILSFLNPEEYGESYSYNVLQSIHAIGAGGLFGAGYMKGKANLMGYVPVSYTDFIVSVIGEEFGFIGIVFLLSLFGLLFFEVSRWILNVKDEYWEILMVSACGLIWFHVFENVSMNLGLLPVTGVPLPFISYGGTSTLVFSILVGLILKGIALARVEKKL”, for which the protein production entry is given as “failed”.

“MSIPLLEYAPSSQNQRVEGYEVPNEDTPTIYRLAAAIDDADVDAIIWAGYRQIFSEHLIIKSNRQSFLESQLRNRAINVRDFIRGLGKSEVYRTQVADLNSNYRLVDITLKRFLGRAAYNQDEEIAWSIVIGSQGLHGFIDALLDSDEYRENFGDDIVPYQRRRYKDRPFNLVNPRYNAYWRDRQTLNALGGRSFYSARTSGTLTKDDIRRAIPANFMALAGKILTPERNYQRTIASVTSQIKDIKIPDTSREVTTPEVTVKPVAVALPYRYIPGNKTT”: the protein production entry is “failed”. The value for “MSISISSIPDLTTVRARHPEAIAEAAARRVRRPLIGDSGRLMIVAADHPARGALGVGDRGLAMANRADLLERLCTALSRPGVDGVLATADVLEDLLLLGVLENKVVMGSMNRGGLAGAAFEMDDRFTGHRAEDIARLRFDAGKLLLRIDYDDPGSLTTMEASARAVDAMAARELPLFVEPFISRRIDGRVRNDLSAEAVTRSVAIASGLGGTSAYTWLKLPVTRNPDDMAEVLETSTLPAVLLGGDIGGSPADQTAAYERWRKALRLPTVQGMVVGRSLLYPAGGSVEEAVDTAVGLL” was “failed”; that for “MSISSHDVGRTYPTTDPYLVTAEKIRELATALGDNAPAYRGDDPIAPPTFAMVLASRAWEALFDDEQLDLRLEHMIHTDQSFHWIRPLHEGDEVTAALTITSVRTRGNTDIIGINVSLDHVDGEHLGNATSTLWHTRPEGNA” was “failed”. The value for “MSKDGLSNDQVSSMKEAFMLFDTDGDGKIAPSELGILMRSLGGNPTESQLKSIITTENLSSPFDFNRFLDLMAKHLKTEPFDRQLRDAFKVLDKEGTGFVAVADLRHILTSIGEKLQPSEFDEWIKEVDVGSDGKIRYEDFIARMVAK” was “failed”; that for “MSKDSNKIIEQSREIGISIIMPLYNVEEVILETLESIHEQTFDSYEVLLIDDGSTDKTIEIVTEYIKDKPRFKLYTQPNGGPASARNHGLRLAIGMYICFVDSDDILPNYSLQLMYDGAISTGAKLITGATKRFNSEGEWFIPMHIQYNIAKPGMKTLLKNPELFYSIGPCAKLYHHSLIDGVFFPENIRYGEDQPFVLHALLQAKDIYTVEKVVYYYRLRDGESQSLTQSVDKDPIRILKSVFQIFDYGEEELKKNNTDYEVALKYYQRVSSVELWGALRAAIESKKSENQKIAFTMTLDWLKTKSDDFLNIIPSFRYFLLFSSIERVRYITKDNKENYRNLIGYLWSRQGEEAKIAFRKTYPIPMKAALQIIENNNWRDARKISFKFIVRRKFKAPILIRKISRGIIFRIATLMPRKKNQVILATERSTTLEGNLLAIYDYMFYNNMPQKVYVFLRKNRNWFEMFQLYYTLGRTKTIVLDDYYNKIYGLKFNKNTHVVQSWHATGAFKKFGFSALEGTDANTEEFETRAHSPYTDVLVSSEGIIPEYMEAFRKQANQIKPIGVPRTDVFFDDEYVNYTKEKYMKMYPQLRDKKILLYAPTFRGGPNERFNYSVVLDIAALKKELGDTHILILKFHPVIKNVSFNVEEDDPFILNLTLNNDINDLMLFSDALITDYSSVIFEFSLMNKPIYFFAYDIDDYLDERGFYFDYKATIPGEVFRDTPSLIEAVKSGLYNYDELEIFKKKFVGSLDGNSTKRFVETYIGKANEKVKDILEHHHHHH” was “not failed”.

Consider “MSKEMRSRLFSILKVVFAVALFSIVVFTLYKELSHINIKETIQSFGKINRVWLVALFVIGGASIIVLSMYDVILAKSLNLKISLLKTIRVGYIVNALNAVVGFGGFIGASVRFLFYKNATDDKRALLHTISIVLISMLTGLSLLSILVVIHVFDVSHLFTPYPWIKWLMYVVALFLPVFVIFTILRPVQENQKLLGVYCTIVSSIEWLVAALVLYMALTMVGVHVPISIFMGIFIIAALSGLISFIPGGFGTFDLVVLLGLKHLNIDEESIVLGLLLYRFAYYLFPVLVALILSTFEFRGTAKRYWEDARILVPVRDMTSLLSSYQKDIIARAPSFSIAILLMFTSLLFFLNNLTIIYDGLYDPNHYIYYIIVSVHTCACLLLLLNVVGVYRLSKRAILFSIISIILIFIVTAYTYASFILLSWLVVMLILLFIFYRRARVIKRPFRYLKLCLSFIMGALVLYINHIVIASTFYTLDIYHIEIDTSILRYYFWFTILLVAVIVGLIVWWFEYRYRISNTREDTKICASIVKQYGGNYLSHLMYSGDKKFFINENEDAFIMYRYQRNAYIVLGDPIGNPQSFYSLLESFYQEAEYLGYDIIFYQVTDRNMSLYHSFGNQFFKLGEEAVIDLNEFKISGKKKRGLRATLNKLDDLKYTFEVIEPPFTQALITDLKTISDEWLADKKEMHFSVGSFNESYLSKAPIAIIKDSDGLIIAFCTLMPTYYKGTISVDLIRWKPDCTLPLMDGLYLNMLLWSQKQNYQHFNMGMATLSNVGQLPYSFYGERIAGRVFEHFNGLYRFQGLRKYKEKFNPNWEPRFLVYRKRHSLWLSMIKVMRVIRKHK”, for which the protein production entry is recorded as “failed”.

For “MSKHKFMIYFLTTTLVLPTFTTSIAHAEDTNEDDKMKSSSTQEEQTNHNEDVNDNNTNEASQPDDTQSDNTSSEAPTKEDSKNKIKREKSKSSNTSSEEKDDDNTSVSRSHQKRDKDTNNTYRTPLSPIFDATHSSGLPASNFLNPDLYQNGFSLTHLIASLFNFDSDISDYEQPASTNETDDDTHSTNEQDTDSQDQDQTEHSASSSDTTNREHDDVQQSSEKANQSDKTSRQDEIDTKQQSTANQDKDDASVSKALDAIDDFVSDETDDDKDNQGSNNTDTTNHQSYNDDTSTDSKNDSSKTSSSDSNSLSESALDTVLDKYSEDAKKTHQDFESSKKDNETNTSKGEKTKNNTTKASNPQLPTKKELEHKTTPAQSFEDDFKQSNTRSTSLFQTLPQLNGSDVTDGDITVVENKGTRDFIKSIAKDAHKIGQDKDLYASVMIAQAILESSSGNSTLAQAPNYNLFGIKGSYKGQSVNFNTLEAGSDNSMFSINAGFRKYPSTKASLEDYADLIKNGIDGNPTIYKPTWKHEAIDYRDATRHLSRTYATDPNYATKLNSLIKHYHLTDFDKKKMPDLDRYAKQTSSGEDASGSEFKSFEITDSSSPYPQGQCTWYVYERVQQFGKKVGSDWGDAHNWDNRAESDNYDVSQTPSTHSAVVFEAGQAGAHDIYGHVAFVEKVNKDGSIVISESNVKGLGIVSYRTIDASTAEDLHYIEPK”, the protein production entry is “failed”. Consider “MSKIEDIRKFYARLMAANAASSDPRLEQVFATVPREAFLGPGPWTIVAGSGRVTTPSADPAHIYQNVLVALDADKGINNGEPFLHAMWIGKLAPKPGEAVTHVGAGTGYYSAVLARLVSPGGTVTAFELEGRLADLARKNLEIYGNATVIHGDAVTRPLPPSDIIYVNAGVVAPPVGWLKALRPGGRMIFPWRPSERVPLAVMVTRTEKGFACDPFMRSWFIPCIGASVADLAAKIPTPEQATRSRSIWLTQHKAPDRTATAIFGDVWFSTKDVRAKPGS”, for which the protein production entry was “failed”.

As to “MSKIEIFEAAGCCATSSVVVSDEAVKWNASAEWAKKHGVNIQRYSLAKNPQQFLNTPVIRAFLNTSGMESLPATLLDGQLVMAGKLPSREDIARWAG”, the protein production entry is listed as “not failed”.

For the sequence “MSKIFNEELAVIEAAAIAYLTAFNRADIPAVIATYTDDGVLMGPGRPAAVGKDELAEVYLSVFETVGFDMAYEIKEVVQTSADWAFVRSATEGTETNKATGVVTPAAYQELFLLRKSATGSWQTARYCTSKISP”, the protein production result was “not failed”. For “MSKITFKDIYIDGNKITEDSRKAIYLLPPQPLKYASNTWIYKTMPTMNQWLKDIEVQKKMHLNQSSYHLSFSFPANEKIDEVLLEKIRELGFQIGVLELYVIEAKALKELSRKRDVDIQLVSSNNINDYLHVYDAFARPFGDSYANMVKQHIYSSYNLDDIERLVAYVNHQPVGIVDIIMTDKTIEIDGFGVLEEFQHQGIGSEIQAYVGRMANERPVILVADGKDTAKDMYLRQGYVYQGFKYHILKENI” the value was “not failed”; for “MSKKKGLSAEEKRTRMMEIFSETKDVFQLKDLEKIAPKEKGITAMSVKEVLQSLVDDGMVDCERIGTSNYYWAFPSKALHARKHKLEVLESQLSEGSQKHASLQKSIEKAKIGRCETEERTRLAKELSSLRDQREQLKAEVEKYKDCDPQVVEEIRQANKVAKEAANRWTDNIFAIKSWAKRKFGFEENKIDRTFGIPEDFDYID”, “failed”.

For the origin of these results see a protein production outcome set (Wang et al. 2014).
